Target: T1, TNKS2 ARC1 (Homo sapiens, UniProt Q9H2K2)
T1 construct: TNKS2 ARC1 (20–178); His6-GST; made in house; host or cells: E. coli
T1 sequence (Q9H2K2 whole entry, looked up): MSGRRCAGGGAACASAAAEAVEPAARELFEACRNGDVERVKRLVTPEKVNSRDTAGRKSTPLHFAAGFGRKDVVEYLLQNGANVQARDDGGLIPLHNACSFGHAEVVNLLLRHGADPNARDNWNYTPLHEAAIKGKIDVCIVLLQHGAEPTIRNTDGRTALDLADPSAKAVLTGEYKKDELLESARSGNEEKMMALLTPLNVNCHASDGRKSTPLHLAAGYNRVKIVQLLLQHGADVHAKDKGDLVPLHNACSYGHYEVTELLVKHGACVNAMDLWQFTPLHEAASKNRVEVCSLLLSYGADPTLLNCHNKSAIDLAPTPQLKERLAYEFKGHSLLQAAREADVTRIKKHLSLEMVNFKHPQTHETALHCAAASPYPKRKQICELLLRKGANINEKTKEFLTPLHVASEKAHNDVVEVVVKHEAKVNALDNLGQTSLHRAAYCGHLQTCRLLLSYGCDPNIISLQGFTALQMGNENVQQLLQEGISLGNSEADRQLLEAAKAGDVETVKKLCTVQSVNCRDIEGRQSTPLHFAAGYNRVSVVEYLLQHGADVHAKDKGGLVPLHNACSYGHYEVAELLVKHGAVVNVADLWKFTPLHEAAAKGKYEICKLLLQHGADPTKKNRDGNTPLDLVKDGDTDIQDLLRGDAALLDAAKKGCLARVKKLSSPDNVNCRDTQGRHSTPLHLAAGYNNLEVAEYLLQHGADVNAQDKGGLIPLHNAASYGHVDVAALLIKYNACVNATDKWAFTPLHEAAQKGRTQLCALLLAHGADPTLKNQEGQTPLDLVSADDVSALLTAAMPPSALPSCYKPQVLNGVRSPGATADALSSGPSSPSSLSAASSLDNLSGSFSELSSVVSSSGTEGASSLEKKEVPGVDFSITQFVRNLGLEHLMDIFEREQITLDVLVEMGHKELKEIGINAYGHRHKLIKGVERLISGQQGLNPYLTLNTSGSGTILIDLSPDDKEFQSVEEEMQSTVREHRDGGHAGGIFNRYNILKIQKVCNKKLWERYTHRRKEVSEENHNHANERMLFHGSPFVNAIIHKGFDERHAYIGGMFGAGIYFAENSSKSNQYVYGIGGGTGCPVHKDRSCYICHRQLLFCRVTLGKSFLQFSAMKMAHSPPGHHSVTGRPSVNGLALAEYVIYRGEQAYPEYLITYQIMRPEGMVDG
Test: Differential scanning fluorimetry (DSF)
Type: binding
Details: ARC 20 μM + 3BP2 TBM peptide 200 μM, inflection point method
Method: For the experiment shown in Fig. 2A, ARC and 3BP2 TBM peptide concentrations were 20 and 200 μM, respectively, in 50 mM HEPES-NaOH pH 7.5, 100 mM NaCl, 2 mM TCEP and a total volume of 25 μL. SYPRO Orange was added at 5×. Data were recorded from 4–95 °C, with the temperature ramped by 0.5 °C every 15 s, using a CFX384 thermal cycler (Bio-Rad). Data were analysed by non-linear regression in GraphPad Prism using a Boltzmann sigmoid with linear baselines. ΔTm values were determined using the inflection point method.

- ΔTm: 1.34 °C
Sequence: LPHLQRSPPDGQSFRSW [3BP2 16-mer peptide, 16-mer TBM peptide derived from 3BP2, W added for A280, N-terminus acetylated, C-terminus amide-capped; positive control, reference compound]
